Earlier results in US20210330752A1, “FEED SUPPLEMENTS” (OmniGen Research, LLC, priority 2018, published 2021).

System: binding protein

For Insulin-like growth factor-1 [IGF-1], the “IGF-1 in plasma bound to a binding protein” value is given as “more than 99%”.
